Assay results as given in PMC12756002 (2025).

B1: Ssa1-WT [yeast] / Sis1-FLRnq1 complex (Sis1-WT premixed with denatured Rnq1) [yeast] (parent complex)
chain 1: not shown
chain 2: MVKETKLYDLLGVSPSANEQELKKGYRKAALKYHPDKPTGDTEKFKEISEAFEILNDPQKREIYDQYGLEAARSGGPSFGPGGPGGAGGAGGFPGGAGGFSGGHAFSNEDAFNIFSQFFGGSSPFGGADDSGFSFSSYPSGGGAGMGGMPGGMGGMHGGMGGMPGGFRSASSSPTYPEEETVQVNLPVSLEDLFVGKKKSFKIGRKGPHGASEKTQIDIQLKPGWKAGTKITYKNQGDYNPQTGRRKTLQFVIQEKSHPNFKRDGDDLIYTLPLSFKESLLGFSKTIQTIDGRTLPLSRVQPVQPSQTSTYPGQGMPTPKNPSQRGNLIVKYKVDYPISLNDAQKRAIDENF
chain 3: MDTDKLISEAESHFSQGNHAEAVAKLTSAAQSNPNDEQMSTIESLIQKIAGYVMDNRSGGSDASQDRAAGGGSSFMNTLMADSKGSSQTQLGKLALLATVMTHSSNKGSSNRGFDVGTVMSMLSGSGGGSQSMGASGLAALASQFFKSGNNSQGQGQGQGQGQGQGQGQGQGSFTALASLASSFMNSNNNNQQGQNQSSGGSSFGALASMASSFMHSNNNQNSNNSQQGYNQSYQNGNQNSQGYNNQQYQGGNGGYQQQQGQSGGAFSSLASMAQSYLGGGQTQSNQQQYNQQGQNNQQQYQQQGQNYQHQQQGQQQQQGHSSSFSALASMASSYLGNNSNSNSSYGGQQQANEYGRPQQNGQQQSNEYGRPQYGGNQNSNGQHESFNFSGNFSQQNNNGNQNRY
B2: Sis1-WT [yeast] / full-length Rnq1 [yeast] (parent complex)
chain 1: B1 chain 2
chain 2: B1 chain 3
B3: Sis1-WT [yeast] / Ssa1-WT [yeast] (parent complex)
chain 1: B1 chain 2
chain 2: not shown

Variants of: B1
Assay: ELISA; Denatured Rnq1 premixed with Sis1 and immobilized; Ssa1-WT at 20 nM; detection with αSsa1 antibody; parent: 230; read off a plot

| Variant | response [Abs 450nm] |
| --- | --- |
| chain 2 S49V | ~170 |
| chain 2 N56L | ~89 |
| chain 2 E53A | ~120 |
| chain 2 E53K | ~110 |

Variants of: B2
Assay: ELISA; 400 ng denatured FL Rnq1 immobilized; Sis1 at 20 nM; detection with Sis1-specific antibody; parent: 240; read off a plot

| Variant | response [Abs 450nm] |
| --- | --- |
| chain 1 MVKETKLYDLLGVSPSANEQELKKGYRKAALKYHPDKPTGDTEKFKEIVEAFEILNDPQKREIYDQYGLEAARSGGPSFGPGGPGGAGGAGGFPGGAGGFSGGHAFSNEDAFNIFSQFFGGSSPFGGADDSGFSFSSYPSGGGAGMGGMPGGMGGMHGGMGGMPGGFRSASSSPTYPEEETVQVNLPVSLEDLFVGKKKSFKIGRKGPHGASEKTQIDIQLKPGWKAGTKITYKNQGDYNPQTGRRKTLQFVIQEKSHPNFKRDGDDLIYTLPLSFKESLLGFSKTIQTIDGRTLPLSRVQPVQPSQTSTYPGQGMPTPKNPSQRGNLIVKYKVDYPISLNDAQKRAIDENF [chain 1 S49V] | ~130 |
| chain 1 MVKETKLYDLLGVSPSANEQELKKGYRKAALKYHPDKPTGDTEKFKEISEAFAILNDPQKREIYDQYGLEAARSGGPSFGPGGPGGAGGAGGFPGGAGGFSGGHAFSNEDAFNIFSQFFGGSSPFGGADDSGFSFSSYPSGGGAGMGGMPGGMGGMHGGMGGMPGGFRSASSSPTYPEEETVQVNLPVSLEDLFVGKKKSFKIGRKGPHGASEKTQIDIQLKPGWKAGTKITYKNQGDYNPQTGRRKTLQFVIQEKSHPNFKRDGDDLIYTLPLSFKESLLGFSKTIQTIDGRTLPLSRVQPVQPSQTSTYPGQGMPTPKNPSQRGNLIVKYKVDYPISLNDAQKRAIDENF [chain 1 E53A] | ~79 |
| chain 1 MVKETKLYDLLGVSPSANEQELKKGYRKAALKYHPDKPTGDTEKFKEISEAFKILNDPQKREIYDQYGLEAARSGGPSFGPGGPGGAGGAGGFPGGAGGFSGGHAFSNEDAFNIFSQFFGGSSPFGGADDSGFSFSSYPSGGGAGMGGMPGGMGGMHGGMGGMPGGFRSASSSPTYPEEETVQVNLPVSLEDLFVGKKKSFKIGRKGPHGASEKTQIDIQLKPGWKAGTKITYKNQGDYNPQTGRRKTLQFVIQEKSHPNFKRDGDDLIYTLPLSFKESLLGFSKTIQTIDGRTLPLSRVQPVQPSQTSTYPGQGMPTPKNPSQRGNLIVKYKVDYPISLNDAQKRAIDENF [chain 1 E53K] | ~140 |
| chain 1 MVKETKLYDLLGVSPSANEQELKKGYRKAALKYHPDKPTGDTEKFKEISEAFEILLDPQKREIYDQYGLEAARSGGPSFGPGGPGGAGGAGGFPGGAGGFSGGHAFSNEDAFNIFSQFFGGSSPFGGADDSGFSFSSYPSGGGAGMGGMPGGMGGMHGGMGGMPGGFRSASSSPTYPEEETVQVNLPVSLEDLFVGKKKSFKIGRKGPHGASEKTQIDIQLKPGWKAGTKITYKNQGDYNPQTGRRKTLQFVIQEKSHPNFKRDGDDLIYTLPLSFKESLLGFSKTIQTIDGRTLPLSRVQPVQPSQTSTYPGQGMPTPKNPSQRGNLIVKYKVDYPISLNDAQKRAIDENF [chain 1 N56L] | ~60 |

Variants of: B3
Assay: ELISA; Ssa1 (200 nM) immobilized; Sis1 at 20 nM; detection with αSis1 antibody; parent: 130; read off a plot

| Variant | response [Abs 450nm] |
| --- | --- |
| chain 1 S49V | ~82 |
| chain 1 N56L | ~75 |
| chain 1 E53A | ~78 |
| chain 1 E53K | ~97 |
